The data set deals with the molecule itself. The data set is described as follows: SEC.

We go through one protein from article PMC5739008 (The ISME journal, 2017).

B1: methanethiol oxidase (MTO) of Hyphomicrobium sp. VS (enzyme)
chain: DETCNSPFTTALITGQEQYLHVWTLGMPGVGDESDKLVTISVDPKSDKYGKVINTLSVGGRGEAHHTGFTDDRRYLWAGRLDDNKIFIFDLIDPANPKLIKTITDFADRTGYVGPHTFYALPGRMLIQALSNTKTHDGQTGLAVYSNAGELVSLHPMPVTDGGDGYGYDIGINPAKNVLLTSSFTGWNNYMMDLGKMVKDPEAMKRFGNTMAIWDLKSMKAEKILNVPGAPLEIRWSLKPEHNWAYTATALTSKLWLIKQDDKGEWIAKETGTIGDPSKIPLPVDISITADAKGLWVNTFLDGTTRFYDISEPEHPKEVFSKKMGNQVNMVSQSYDGKRVYFTTSLIANWDKKGAENDQWLKAYDWDGKELVEKFTVDFNELKLGRAHHMKFSSKTNAAELGTNQSFPTRQ
With B1, the stoichiometry N (in general, the number of molecules, sites or subunits per partner or assembly) stood at 4.
